How the values were obtained:
[1] = target: TGFBIp A546T (residues 45–632) (human) (UniProt Q15582); assay: SEC; calibrated SEC, Superdex 200 Increase 10/300 GL in PBS; TGFBIp at 7 μM
[2] = target: TGFBIp R124H (residues 45–632) (human) (UniProt Q15582); assay: as above
[3] = target: TGFBIp R124H (residues 45–632) (human) (UniProt Q15582); assay: in-line SEC-SAXS; in-line Superdex Increase 200 3.2/300 in 20 mM Tris, 150 mM NaCl, pH 7.4; ~0.5 to 1 mg/ml; rigid-body modeling
[4] = target: TGFBIp R555W (residues 45–632) (human) (UniProt Q15582); assay: SEC; calibrated SEC, Superdex 200 Increase 10/300 GL in PBS; TGFBIp at 7 μM
[5] = target: TGFBIp R555W (residues 45–632) (human) (UniProt Q15582); assay: in-line SEC-SAXS; in-line Superdex Increase 200 3.2/300 in 20 mM Tris, 150 mM NaCl, pH 7.4; ~0.5 to 1 mg/ml; rigid-body modeling
[6] = target: wildtype transforming growth factor-β–induced protein (TGFBIp), residues 45–632 (human) (UniProt Q15582); assay: SEC; calibrated SEC, Superdex 200 Increase 10/300 GL in PBS; TGFBIp at 7 μM
[7] = target: wildtype transforming growth factor-β–induced protein (TGFBIp), residues 45–632 (human) (UniProt Q15582); assay: in-line SEC-SAXS; in-line Superdex Increase 200 3.2/300 in 20 mM Tris, 150 mM NaCl, pH 7.4; ~0.5 to 1 mg/ml; rigid-body modeling

Substance “TGFBIp A546T (residues 45–632) (from UniProt Q15582 45-632) (domain or fragment)” has a stoichiometry N [1] of 2.

With “TGFBIp R124H (residues 45–632) (from UniProt Q15582 45-632) (domain or fragment)” the stoichiometry N [2] was 2 and the stoichiometry N [3] was 2.

Substance “TGFBIp R555W (residues 45–632) (from UniProt Q15582 45-632) (domain or fragment)” has a stoichiometry N [4] of 2 and a stoichiometry N [5] of 2.

For “wildtype transforming growth factor-β–induced protein (TGFBIp), residues 45–632 (from UniProt Q15582 45-632) (domain or fragment)”, the stoichiometry N [6] was 2 and the stoichiometry N [7] was 2.
